Data: PMC4831024 (Nature Communications, 2016)

Biological target: T1, Ku heterodimer (Ku70/Ku80), full length, recombinant human (human, UniProt P12956 1-609; P13010 1-732)
T1 construct: Ku70, human; Ku80, human; also called recombinant Ku; full-length Ku heterodimer; source: insect cells, baculovirus expression system, purified (immobilized metal-chelate chromatography, gel filtration)
Experiment: pull-down; 50 nM Strep-tagged WRN protein immobilised on Streptavidin Mag Sepharose beads, 50 nM recombinant untagged Ku, 1 h at 4 °C; 20 mM Hepes pH 7.5, 150 mM NaCl, 5% glycerol, 0.5 mM TCEP, 0.05% IGEPAL-CA640; SDS–PAGE, Coomassie/Instant Blue
Details: both partners purified

T1 sequence (P12956 whole entry, chain 1 of 2): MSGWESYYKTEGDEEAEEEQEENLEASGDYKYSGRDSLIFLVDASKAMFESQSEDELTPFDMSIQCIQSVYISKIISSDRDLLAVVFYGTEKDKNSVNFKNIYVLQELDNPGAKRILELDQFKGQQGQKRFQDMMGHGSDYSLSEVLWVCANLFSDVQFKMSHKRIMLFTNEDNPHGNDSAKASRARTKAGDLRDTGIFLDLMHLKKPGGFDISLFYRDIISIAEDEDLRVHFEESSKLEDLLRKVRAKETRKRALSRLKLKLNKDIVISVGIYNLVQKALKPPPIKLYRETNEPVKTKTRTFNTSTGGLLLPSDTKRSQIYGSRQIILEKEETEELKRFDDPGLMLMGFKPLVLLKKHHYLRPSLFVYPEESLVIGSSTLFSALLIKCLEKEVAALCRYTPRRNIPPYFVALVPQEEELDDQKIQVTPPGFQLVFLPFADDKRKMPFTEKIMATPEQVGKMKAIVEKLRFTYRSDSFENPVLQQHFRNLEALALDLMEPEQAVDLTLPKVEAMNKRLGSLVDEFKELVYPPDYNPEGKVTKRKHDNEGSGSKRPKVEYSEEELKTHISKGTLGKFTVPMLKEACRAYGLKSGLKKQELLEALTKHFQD
T1 sequence (P13010 whole entry, chain 2 of 2): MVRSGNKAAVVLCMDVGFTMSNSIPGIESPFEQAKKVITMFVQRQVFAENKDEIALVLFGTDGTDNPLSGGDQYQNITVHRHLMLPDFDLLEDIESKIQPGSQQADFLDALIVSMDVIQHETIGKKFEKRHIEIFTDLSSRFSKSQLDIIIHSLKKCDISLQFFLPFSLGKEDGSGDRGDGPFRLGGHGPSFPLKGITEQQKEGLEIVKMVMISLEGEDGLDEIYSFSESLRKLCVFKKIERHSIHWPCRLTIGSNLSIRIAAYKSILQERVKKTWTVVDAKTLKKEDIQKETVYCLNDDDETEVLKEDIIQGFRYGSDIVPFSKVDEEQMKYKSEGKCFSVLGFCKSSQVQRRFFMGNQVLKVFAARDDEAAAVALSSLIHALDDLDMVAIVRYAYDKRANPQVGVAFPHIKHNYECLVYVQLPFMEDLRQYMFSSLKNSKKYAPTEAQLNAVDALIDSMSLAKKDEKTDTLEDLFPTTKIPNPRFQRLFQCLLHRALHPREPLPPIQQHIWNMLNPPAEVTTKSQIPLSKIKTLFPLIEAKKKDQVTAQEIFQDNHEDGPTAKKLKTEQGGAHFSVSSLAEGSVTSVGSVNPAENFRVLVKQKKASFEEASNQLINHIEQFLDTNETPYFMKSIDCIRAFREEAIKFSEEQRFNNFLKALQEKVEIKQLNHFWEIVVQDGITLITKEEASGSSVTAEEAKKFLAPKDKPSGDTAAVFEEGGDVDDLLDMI

B1: Strep-tagged WRN^W18G (natural protein)
chain: not shown
notes: Werner syndrome protein (WRN), human, full length, W18G; source: insect cells, baculovirus expression system, purified (Strep-Tactin Superflow Plus cartridge, Superose 6 gel filtration)
Q: Does B1 bind?
A: binds
